Where a chain is given by its changes, count along the chain named.
T1: DENV1 envelope protein domain III (EDIII, aa295-395) (Dengue virus type 1, Hawaii, strain)
T1 construct: also called DENV1 EDIII; EDIII from DENV1
T1 chain: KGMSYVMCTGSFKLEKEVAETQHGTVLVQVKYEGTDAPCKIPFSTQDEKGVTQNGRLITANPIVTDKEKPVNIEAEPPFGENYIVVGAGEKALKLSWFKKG

B1: C9 IgG (chimeric mouse/human IgG) (antibody, V domains shown)
VH: EVQLQQSGAELVRPGASVKLSCKALGYRFTDYEMYWVKQTPAHGLEWIGGIHPRSGNTAYNQKFKDKATLTADKSSSTAYMELSSLTSEDSAVYYCTTSLYWGQGTLVTVSA
VL: DVLMTQTPLSLPVILGDQASISCRSSQSLVHSNGNTYLHWYLQKPGQSPKLLIYSIFNRFSGVPDRFSGSGSGTDFTLKISRVEAEDLGVYFCSQGTHVPWTFGGGTKLEIK
notes: Bivalent IgG
B2: C9 Fab (chimeric mouse/human Fab) (Fab, V domains shown)
VH: B1 VH
VL: B1 VL
B3: F1 Fab (chimeric mouse/human Fab) (Fab, V domains shown)
VH: B1 VH with Q3K, Q5V, Q6E
VL: B1 VL with V2I, T7S, I14S, N33T, S55K, I56V, F57S, I111L

Experiments:
[1] = biological target: DENV2 envelope (E) protein in DENV2 infected BHK-21 cells (Dengue virus type 2, GenBank EU081177.1, UniProt A9LIC9, strain); assay: immunostaining of cells or tissue; details: one partner purified
[2] = biological target: T2, DENV4 envelope protein domain III (EDIII, aa295-395) (Dengue virus type 4, …, UniProt Q58HT7, strain); assay: ELISA; details: both partners purified
T2 construct: also called DENV4 EDIII; EDIII from DENV4

[3] = biological target: T3, DENV3 envelope protein domain III (EDIII, aa295-395) (Dengue virus type 3, …, UniProt P27915, strain); assay: ELISA; details: both partners purified
T3 construct: also called DENV3 EDIII; EDIII from DENV3

[4] = biological target: T1, DENV1 envelope protein domain III …; assay: ELISA; details: both partners purified

| Binder | binding result [1] | binding result [2] | fold stronger interaction than the C9 Fab (average) [3] | fold stronger interaction than the C9 Fab (average) [4] | binding result [3] | binding result [4] |
| --- | --- | --- | --- | --- | --- | --- |
| B1 | binds | no binding | ~30 times | ~30 times | – | – |
| B2 | – | no binding | – | – | – | – |
| B3 | – | – | – | – | binds | binds |

From publication PMC3317677 (International Journal of Molecular Sciences, 2012)
